Where no end group is shown, it is not given here.

The values that follow come from article PMC10683472, “Deep Learning-Driven Library Design for the De Novo Discovery of Bioactive Thiopeptides” (ACS Central Science, 2023).

This test has as its target T1, TLR10 (Homo sapiens, UniProt Q9BXR5).
T1 sequence (Q9BXR5 20-576): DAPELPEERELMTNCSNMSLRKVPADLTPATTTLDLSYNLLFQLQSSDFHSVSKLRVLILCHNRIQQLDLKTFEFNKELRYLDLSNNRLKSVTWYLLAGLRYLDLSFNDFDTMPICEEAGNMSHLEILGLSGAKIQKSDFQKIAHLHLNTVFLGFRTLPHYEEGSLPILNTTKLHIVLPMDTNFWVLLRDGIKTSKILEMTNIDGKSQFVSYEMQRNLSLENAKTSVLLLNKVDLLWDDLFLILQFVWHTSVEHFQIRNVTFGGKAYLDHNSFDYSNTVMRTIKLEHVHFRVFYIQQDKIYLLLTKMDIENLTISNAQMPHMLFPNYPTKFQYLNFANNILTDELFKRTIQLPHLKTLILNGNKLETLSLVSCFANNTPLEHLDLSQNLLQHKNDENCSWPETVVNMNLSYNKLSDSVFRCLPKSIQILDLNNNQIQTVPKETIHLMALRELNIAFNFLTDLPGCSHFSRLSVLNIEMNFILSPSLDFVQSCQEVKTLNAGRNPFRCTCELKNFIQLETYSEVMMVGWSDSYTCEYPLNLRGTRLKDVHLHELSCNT
Nature of the test: mRNA display affinity selection against TLR10, NGS abundance. Type of test: binding. Further details: Chimera protein (extracellular domain, amino acid 20-576;); Fc (chimera); purchased R&D system #6619-TR-050. The following applies: Top100 selection hits, NGS.

For the setting “TLR10 selection pulldown (-)”, CITFQLTRKVAF (not fully specified) returned a Library fraction of 0.00554 and a Raw reads of 661.
Sequence WPGSMARDSIS returned a Library fraction (TLR10 selection pulldown (+)) of 0.013 and a Library fraction (TLR10 selection pulldown (-)) of 0.018. In addition, the Raw reads is, setting by setting: (TLR10 selection pulldown (+)) 1282; (TLR10 selection pulldown (-)) 2179.
As for AIYYSRLNKVAF, where the note is “TLR10 selection pulldown (+)”, the Library fraction is listed as 0.00018 and the Raw reads is recorded as 18.
As for SICFPLQHKCAY, under “TLR10 selection pulldown (-)”, the Library fraction came out at 0.00144 and the Raw reads came to 172.
For the setting “TLR10 selection pulldown (+)”, SIMIYCNQKIRG returned a Library fraction of 0.00114 and a Raw reads of 111.
The matching figures for SVSFPLQRKLVF: 0.00065 and 63.
Taken in the same sequence, the figures for IGKTYVKSC were 0.00027 and 26.
With CVFFPHLNKIAL, where the note is “TLR10 selection pulldown (-)”, the Library fraction is on record as 0.022 and the Raw reads worked out at 2623.
Under “TLR10 selection pulldown (+)”, AVRNKYGGNAAS yielded a Library fraction of 0.054 and a Raw reads of 5293. In addition, under “TLR10 selection pulldown (-)”, the Library fraction turned out to be 0.012 and the Raw reads is listed as 1475.
As for SNVIYARQHIIG, under “TLR10 selection pulldown (+)”, the Library fraction turned out to be 0.0005 and the Raw reads came out at 49.
For the setting “TLR10 selection pulldown (+)”, SPIHFRSVL had a Library fraction of 0.00047 and a Raw reads of 46.
Consider ALELKHVVVV, for which, where the note is “TLR10 selection pulldown (+)”, the Library fraction is 0.00049 and the Raw reads amounted to 48.
For SVPFPLQRKLVF, under “TLR10 selection pulldown (+)”, the Library fraction was 0.005 and the Raw reads stood at 482. Under “TLR10 selection pulldown (-)”, this sequence showed a Library fraction of 0.00118 and a Raw reads of 141.
Regarding TILFPLQRRLVV, where the note is “TLR10 selection pulldown (-)”, the Library fraction stood at 0.0018 and the Raw reads is 215.
For the setting “TLR10 selection pulldown (+)”, SMLVWKGQSIRG had a Library fraction of 0.004 and a Raw reads of 408. Also, under “TLR10 selection pulldown (-)”, the Library fraction stood at 0.002 and the Raw reads was 248.
The matching figures for GLVINKRWYVHL: 0.00058, 57, 0.00054 and 64.
For the setting “TLR10 selection pulldown (+)”, SLETNSVVWI registered a Library fraction of 0.00021 and a Raw reads of 20.
Where the note is “TLR10 selection pulldown (-)”, SMLFRLANKIAF gave a Library fraction of 0.040 and a Raw reads of 4812.
For the setting “TLR10 selection pulldown (+)”, SMCVWARQKIVG registered a Library fraction of 0.00071 and a Raw reads of 69. Where the note is “TLR10 selection pulldown (-)”, the Library fraction was determined as 0.00054 and the Raw reads is 64.
Taken in the same sequence, the figures for VGRVYIKSS were 0.00258, 251, 0.00364 and 434.
AFQRRDDFRWVI: under “TLR10 selection pulldown (+)”, the Library fraction turned out to be 0.00019 and the Raw reads was found to be 19.
Where the note is “TLR10 selection pulldown (+)”, SIVFHLTNKMAF had a Library fraction of 0.004 and a Raw reads of 391. Where the note is “TLR10 selection pulldown (-)”, this sequence returned a Library fraction of 0.004 and a Raw reads of 462.
As for IGRLFVKSS, for the setting “TLR10 selection pulldown (-)”, the Library fraction is listed as 0.00284 and the Raw reads is reported as 339.
Taken in the same sequence, the figures for SKIIIRGQGIRG were 0.00238 and 284.
Where the note is “TLR10 selection pulldown (+)”, TLHFRRQNKIAY had a Library fraction of 0.020 and a Raw reads of 1927. Further, where the note is “TLR10 selection pulldown (-)”, the Library fraction is recorded as 0.011 and the Raw reads came to 1314.
The matching figures for IGSVFIKSS: 0.00365, 356, 0.003 and 375.
For the setting “TLR10 selection pulldown (-)”, ASFVIGQLLVN returned a Library fraction of 0.00055 and a Raw reads of 66.
For the setting “TLR10 selection pulldown (-)”, IGKTYVASS had a Library fraction of 0.00089 and a Raw reads of 106.
Under “TLR10 selection pulldown (+)”, RMSLNTRYIAF showed a Library fraction of 0.00031 and a Raw reads of 30.
As for ALKFELLRKVAF, where the note is “TLR10 selection pulldown (-)”, the Library fraction is 0.00278 and the Raw reads was determined as 332.
For the setting “TLR10 selection pulldown (-)”, IGRVCIRSS returned a Library fraction of 0.00147 and a Raw reads of 175.
As to AKLIYRTQGIMG, under “TLR10 selection pulldown (+)”, the Library fraction is recorded as 0.00211 and the Raw reads turned out to be 206.
For ALRFPHLGMMAF, where the note is “TLR10 selection pulldown (+)”, the Library fraction is reported as 0.00026 and the Raw reads was 25.
SVCVYQHQGIRG: the Library fraction was 0.035 (TLR10 selection pulldown (+)) and 0.010 (TLR10 selection pulldown (-)). Further, the Raw reads (TLR10 selection pulldown (+)) was found to be 3411 and the Raw reads (TLR10 selection pulldown (-)) is 1149.
For the setting “TLR10 selection pulldown (-)”, TFLGGNVRAWI registered a Library fraction of 0.00088 and a Raw reads of 105.
For the setting “TLR10 selection pulldown (-)”, SLELSRVNVVIH gave a Library fraction of 0.00163 and a Raw reads of 194.
As for IGNTYVASS, where the note is “TLR10 selection pulldown (+)”, the Library fraction turned out to be 0.00022 and the Raw reads came to 21.
The matching figures for SIYFEKAEKVAF: 0.00071 and 69.
Where the note is “TLR10 selection pulldown (-)”, SVEVWVNQKIRG yielded a Library fraction of 0.003 and a Raw reads of 343.
Turning to ALLIKQTNMLYC, for the setting “TLR10 selection pulldown (+)”, the Library fraction was determined as 0.023 and the Raw reads is 2215. Besides, where the note is “TLR10 selection pulldown (-)”, the Library fraction is recorded as 0.018 and the Raw reads worked out at 2188.
For the setting “TLR10 selection pulldown (-)”, ATIDLQLRRLTL came in with a Library fraction of 0.00067 and a Raw reads of 80.
Turning to GDLRGNVCMWL, for the setting “TLR10 selection pulldown (+)”, the Library fraction is reported as 0.00021 and the Raw reads is reported as 20.
The matching figures for SVMNVFGGNAAT: 0.00029 and 28.
For the setting “TLR10 selection pulldown (-)”, RILFARQNLAAF returned a Library fraction of 0.00283 and a Raw reads of 338.
The matching figures for ALVTQHVNVY: 0.00162 and 193.
The matching figures for SMHYRFLCKIAF: 0.001 and 117.
The matching figures for RMMFHLLNQIAY: 0.00358 and 427.
Under “TLR10 selection pulldown (+)”, SLETSHLVIY yielded a Library fraction of 0.00035 and a Raw reads of 34.
Consider ASINRYGGNAAS, for which, for the setting “TLR10 selection pulldown (+)”, the Library fraction is reported as 0.077 and the Raw reads worked out at 7526. Under “TLR10 selection pulldown (-)”, the Library fraction is given as 0.042 and the Raw reads is listed as 4957.
Under “TLR10 selection pulldown (+)”, TIKFPRLQMLAI gave a Library fraction of 0.00066 and a Raw reads of 64.
Under “TLR10 selection pulldown (+)”, MNPYSGNIVV returned a Library fraction of 0.00022 and a Raw reads of 21.
The matching figures for TIYFKLQKAVAL: 0.00055 and 54.
Consider IGNVCVVSS, for which, under “TLR10 selection pulldown (+)”, the Library fraction is reported as 0.007 and the Raw reads stood at 660. Also, under “TLR10 selection pulldown (-)”, the Library fraction amounted to 0.004 and the Raw reads was 475.
Regarding SRIIYMNQSIRG, where the note is “TLR10 selection pulldown (-)”, the Library fraction is listed as 0.00043 and the Raw reads worked out at 51.
The matching figures for RSPIPSWG: 0.00043 and 51.
Regarding IGRVMIKSS, where the note is “TLR10 selection pulldown (+)”, the Library fraction came out at 0.008 and the Raw reads stood at 778. Under “TLR10 selection pulldown (-)”, this sequence gave a Library fraction of 0.007 and a Raw reads of 870.
As for IGRLYIKSS, under “TLR10 selection pulldown (+)”, the Library fraction was determined as 0.003 and the Raw reads came to 304. Under “TLR10 selection pulldown (-)”, this sequence registered a Library fraction of 0.00136 and a Raw reads of 162.
As for SSYVYHKQRIRG, for the setting “TLR10 selection pulldown (+)”, the Library fraction was 0.00022 and the Raw reads is 21.
Take SVVVWHAQPIMG: under “TLR10 selection pulldown (-)”, the Library fraction is listed as 0.006 and the Raw reads is 714.
For the sequence SIQFKVLQKLAF, for the setting “TLR10 selection pulldown (+)”, the Library fraction came out at 0.00018 and the Raw reads was found to be 18.
For the setting “TLR10 selection pulldown (-)”, SQFNHAMGWYVN yielded a Library fraction of 0.00131 and a Raw reads of 156.
SIWFPLQRKIAA: under “TLR10 selection pulldown (+)”, the Library fraction stood at 0.00746 and the Raw reads is 727. Moreover, for the setting “TLR10 selection pulldown (-)”, the Library fraction is recorded as 0.026 and the Raw reads came to 3115.
As to AIRFSNVLAL, under “TLR10 selection pulldown (+)”, the Library fraction is reported as 0.00022 and the Raw reads was determined as 21.
Take CESCCYVIDFEF: where the note is “TLR10 selection pulldown (-)”, the Library fraction turned out to be 0.00343 and the Raw reads is reported as 409.
Consider VGQVLVKSS, for which the Library fraction (TLR10 selection pulldown (+)) was 0.00061 and the Library fraction (TLR10 selection pulldown (-)) was found to be 0.00086. Further, the Raw reads is, setting by setting: (TLR10 selection pulldown (+)) 59; (TLR10 selection pulldown (-)) 102.
For the setting “TLR10 selection pulldown (+)”, SSPNRYGGNVNT came in with a Library fraction of 0.00122 and a Raw reads of 119. Besides, where the note is “TLR10 selection pulldown (-)”, the Library fraction turned out to be 0.00077 and the Raw reads worked out at 92.
Taken in the same sequence, the figures for TNPYGGNITM were 0.015, 1427, 0.00949 and 1132.
Where the note is “TLR10 selection pulldown (-)”, TMCFTFSKMVAF had a Library fraction of 0.00058 and a Raw reads of 69.
